What was measured:
Conditions in all cases: remark: other sources report otherwise
HLA-B*5401 (human) = experiment: competition vs 125I probe peptide, purified HLA, gel filtration
HLA-B*0702 (human) = experiment: as above
HLA-DRB1*0401 (human) = target: T1, HLA-DRB1*0401 (human); experiment: inhibition of 125I-labelled probe peptide binding to purified HLA-DR; gel filtration
T1 chain 1: not shown
T1 chain 2: not shown

HLA-DRB1*0405 (human) = target: T2, HLA-DRB1*0405 (human); experiment: as above
T2 chain 1: not shown
T2 chain 2: not shown

HLA-DRB1*0101 (human) = target: T3, HLA-DRB1*0101 (human); experiment: as above
T3 chain 1: not shown
T3 chain 2: not shown

HLA-DRB1*1501 (human) = target: T4, HLA-DRB1*1501 (human); experiment: as above
T4 chain 1: not shown
T4 chain 2: not shown

HLA-DRB1*0901 (human) = target: T5, HLA-DRB1*0901 (human); experiment: as above
T5 chain 1: not shown
T5 chain 2: not shown

HLA-DRB1*0802 (human) = target: T6, HLA-DRB1*0802 (human); experiment: as above
T6 chain 1: not shown
T6 chain 2: not shown

HLA-DRB1*1302 (human) = target: T7, HLA-DRB1*1302 (human); experiment: as above
T7 chain 1: not shown
T7 chain 2: not shown

HLA-DRB1*1101 (human) = target: T8, HLA-DRB1*1101 (human); experiment: as above
T8 chain 1: not shown
T8 chain 2: not shown

HLA-DRB5*0101 (human) = target: T9, HLA-DRB5*0101 (human); experiment: as above
T9 chain 1: not shown
T9 chain 2: not shown

HLA-A*0301 (Human) = experiment: competition with 125I-labelled probe peptide for purified HLA, gel filtration; relative to standard peptide
HLA-A*6802 (Human) [1] = target: HLA-A*6802 (Human)
HLA-A*0201 (Human) = target: HLA-A*0201 (Human)
HLA-A*0203 (Human) = target: HLA-A*0203 (Human)
HLA-A*6802 (Human) [2] = target: HLA-A*6802 (Human); remark: listed apart in the source
[3] = target: T10, HLA-DR5w11 (DRB1*1101) (human); experiment: inhibition of 125I probe peptide binding to purified HLA-DR, gel filtration
T10 chain 1: not shown
T10 chain 2: not shown

[4] = target: T11, HLA-DR1 (DRB1*0101) (human); experiment: as above
T11 chain 1: not shown
T11 chain 2: not shown

HLA-B*3501 (human) = experiment: competition vs 125I probe peptide, purified HLA, gel filtration
HLA-A*6801 (human) = experiment: inhibition of 125I-labelled probe peptide binding to purified HLA, gel filtration
HLA-A*03 (human) = experiment: competitive inhibition of 125I-labelled probe peptide binding to purified HLA, gel filtration

## VPSALNPA (modifications not checked) [Peptide 19.0016 (HBV POL 769, VPSALNPA)]
HLA-B*5401 (human)
  IC50: 10 nM
HLA-B*0702 (human)
  IC50: 3000 nM

## GFFLLTRILTIPQSL (modifications not checked) [… (HBV ENV 181, 15-mer)]
HLA-DRB1*0401 (human)
  binding affinity ratio (IC50 of standard peptide / IC50 of test peptide): 3.1
HLA-DRB1*0405 (human)
  binding affinity ratio (IC50 of standard peptide / IC50 of test peptide): 0.45
HLA-DRB1*0101 (human)
  binding affinity ratio (IC50 of standard peptide / IC50 of test peptide): 0.43
HLA-DRB1*1501 (human)
  binding affinity ratio (IC50 of standard peptide / IC50 of test peptide): 0.015
HLA-DRB1*0901 (human)
  binding affinity ratio (IC50 of standard peptide / IC50 of test peptide): 0.55
HLA-DRB1*0802 (human)
  binding affinity ratio (IC50 of standard peptide / IC50 of test peptide): 1.6
HLA-DRB1*1302 (human)
  binding affinity ratio (IC50 of standard peptide / IC50 of test peptide): 0.078
HLA-DRB1*1101 (human)
  binding affinity ratio (IC50 of standard peptide / IC50 of test peptide): 2.3
HLA-DRB5*0101 (human)
  binding affinity ratio (IC50 of standard peptide / IC50 of test peptide): 0.011

## ILRGTSFVY (modifications not checked) [HBV POL 760 …]
HLA-A*0301 (Human)
  binding affinity ratio (IC50 of standard peptide / IC50 of test peptide): 0.044

## ILSTLPETTV (modifications not checked) [peptide 1069.14]
HLA-A*6802 (Human) [1]
  IC50: 5970 nM

## FTFSPTYKA (modifications not checked) [HBV POL 656 …]
HLA-A*0201 (Human)
  binding affinity ratio (IC50 of standard peptide / IC50 of test peptide): 0.0056
HLA-A*0203 (Human)
  binding affinity ratio (IC50 of standard peptide / IC50 of test peptide): 0.0031
HLA-A*6802 (Human) [2]
  binding affinity ratio (IC50 of standard peptide / IC50 of test peptide): 7.3

## CSVVRRAFPHCLAFS (modifications not checked) [HBV POL peptide …]
[3]
  binding affinity ratio (relative to standard peptide): 0.0008
[4]
  binding affinity ratio (relative to standard peptide): 0.1

## FPDHQLDPA (modifications not checked) [Peptide 16.0006 (HBV ENV 25, …)]
HLA-B*5401 (human)
  IC50: 12 nM
HLA-B*3501 (human)
  IC50: 8000 nM

## VSIPWTHK (modifications not checked) [HBV POL 50 peptide 26.0024 (VSIPWTHK)]
HLA-A*6801 (human)
  IC50: 20000 nM

## ILRGTSFVY (modifications not checked) [HBV POL 771 peptide 1.0205 (…)]
HLA-A*03 (human)
  IC50: 250 nM
